These results are taken from PMC5845890, “Pathophysiological Consequences of Neuronal α-Synuclein Overexpression: Impacts on Ion Homeostasis, Stress Signaling, Mitochondrial Integrity, and Electrical Activity” (Frontiers in Molecular Neuroscience, 2018).

In general, Kd refers to the constant that tells how readily two partners part at equilibrium. Higher therefore signals weaker binding.

The target of the experiment is T1, Soluble domain (residues 1-209) of human Bcl-Xl (human, UniProt Q07817-1 1-209).
T1 construct: residues left at the N-terminus after thrombin cleavage of the 6XHis tag; Bcl-Xl, human, soluble domain, residues 1-209; 15N-labelled for the titration with peptides; BMRB 19521 (Follis et al., 2014) was used only for the chemical shift assignment; also called 15N-Bcl-Xl; source: BL21 E. coli (pET15b), purified (nickel-sepharose, thrombin digestion, reverse IMAC, size exclusion chromatography); …
The experiment in a line: NMR titration; 15N-Bcl-Xl with synthetic α-Syn (1-26) peptides; 1H-15N HSQC at 298 K; Hepes 25 mM pH 7.0, NaCl 50 mM, 10% D2O, 1 mM DTT; ΔδN against ligand concentration fitted by a single binding model; Kd averaged over residues 94, 120, 134 and 196 of Bcl-Xl. As to conditions: both partners purified.

T1 sequence (Q07817 other isoform, or with tags, fused parts or gaps): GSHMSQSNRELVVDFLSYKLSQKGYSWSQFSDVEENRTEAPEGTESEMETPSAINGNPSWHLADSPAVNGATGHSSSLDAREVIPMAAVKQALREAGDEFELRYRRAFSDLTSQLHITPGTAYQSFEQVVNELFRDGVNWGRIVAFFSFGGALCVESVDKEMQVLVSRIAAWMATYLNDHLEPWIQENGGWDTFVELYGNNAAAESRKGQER

B1: N-terminal acetylated alpha-synuclein peptide 1-26 (peptide)
peptide: not shown
modifications: acetyl group at the N-terminus
notes: α-Synuclein, human, residues 1-26; also called α-Syn (1-26) peptide with an acetyl group at the N-terminus; source: synthetic peptide (Fmoc solid-phase synthesis, reversed-phase HPLC)
The molecule B1 came in with a Kd of 1950 ± 560 µM.
